How the values were obtained:
c-Src SH2 = test: SH2 binding enrichment of the phosphorylated peptide, bacterial display (enrichment ratio); higher = better substrate or ligand; peptides without Tyr show the background
SHP2-C SH2 = test: as above
Grb2 SH2 = Grb2 SH2 (UniProt P62993); test: as above
Jak2 = Jak2 (UniProt O60674); test: phosphorylation enrichment, bacterial display (enrichment ratio); higher = better substrate or ligand; peptides without Tyr show the background
Fer (mouse) = test: as above
c-Src = test: as above
c-Abl (mouse) = test: as above
EPHB2 = EPHB2 (UniProt P29323); test: as above
AncSZ = test: as above
Fes = Fes (UniProt P07332); test: as above
Fyn = Fyn (UniProt P06241); test: as above
Chain of Fyn (P06241 whole entry, looked up): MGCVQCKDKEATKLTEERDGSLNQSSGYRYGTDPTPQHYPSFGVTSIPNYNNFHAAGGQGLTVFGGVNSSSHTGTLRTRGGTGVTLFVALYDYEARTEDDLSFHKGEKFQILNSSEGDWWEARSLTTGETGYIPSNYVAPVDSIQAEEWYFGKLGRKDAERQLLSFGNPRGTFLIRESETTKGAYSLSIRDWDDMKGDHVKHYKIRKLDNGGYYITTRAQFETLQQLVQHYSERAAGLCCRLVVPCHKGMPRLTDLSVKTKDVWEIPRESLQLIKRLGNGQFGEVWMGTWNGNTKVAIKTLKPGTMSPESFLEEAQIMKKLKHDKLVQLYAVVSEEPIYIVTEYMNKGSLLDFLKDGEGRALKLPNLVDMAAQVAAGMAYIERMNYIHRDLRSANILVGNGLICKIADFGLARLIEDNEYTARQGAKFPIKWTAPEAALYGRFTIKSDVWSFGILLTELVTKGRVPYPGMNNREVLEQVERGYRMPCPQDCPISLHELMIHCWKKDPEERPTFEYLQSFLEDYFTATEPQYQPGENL

MERTK = MERTK (UniProt Q12866); test: as above
Chain of MERTK (Q12866 whole entry, looked up): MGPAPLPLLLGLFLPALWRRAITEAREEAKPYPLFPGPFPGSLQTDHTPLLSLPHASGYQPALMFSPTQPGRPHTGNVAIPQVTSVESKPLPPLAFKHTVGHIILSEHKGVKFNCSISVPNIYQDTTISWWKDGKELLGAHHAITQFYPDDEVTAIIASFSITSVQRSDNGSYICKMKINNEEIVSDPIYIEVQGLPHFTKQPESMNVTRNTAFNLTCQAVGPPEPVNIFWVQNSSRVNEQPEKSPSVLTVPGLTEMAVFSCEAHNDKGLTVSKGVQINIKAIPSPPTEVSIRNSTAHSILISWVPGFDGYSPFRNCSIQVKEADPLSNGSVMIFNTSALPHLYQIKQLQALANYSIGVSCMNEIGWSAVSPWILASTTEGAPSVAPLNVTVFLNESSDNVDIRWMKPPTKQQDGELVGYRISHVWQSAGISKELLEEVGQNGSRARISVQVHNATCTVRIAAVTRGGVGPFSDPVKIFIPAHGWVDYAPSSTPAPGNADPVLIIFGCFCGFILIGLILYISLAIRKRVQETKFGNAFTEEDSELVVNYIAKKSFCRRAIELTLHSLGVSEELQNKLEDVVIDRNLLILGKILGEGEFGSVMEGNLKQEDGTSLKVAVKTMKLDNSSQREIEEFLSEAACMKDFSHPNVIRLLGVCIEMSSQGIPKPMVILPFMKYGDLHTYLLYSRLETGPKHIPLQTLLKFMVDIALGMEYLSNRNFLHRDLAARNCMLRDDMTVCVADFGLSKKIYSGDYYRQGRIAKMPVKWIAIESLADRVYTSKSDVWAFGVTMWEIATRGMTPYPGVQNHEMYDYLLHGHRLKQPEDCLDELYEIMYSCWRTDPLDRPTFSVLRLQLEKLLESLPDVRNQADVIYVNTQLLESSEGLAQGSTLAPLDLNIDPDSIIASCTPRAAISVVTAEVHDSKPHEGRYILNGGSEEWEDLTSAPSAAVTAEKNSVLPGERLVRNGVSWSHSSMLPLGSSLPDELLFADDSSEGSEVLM

Hck = Hck (UniProt P08631); test: as above
Chain of Hck (P08631 whole entry, looked up): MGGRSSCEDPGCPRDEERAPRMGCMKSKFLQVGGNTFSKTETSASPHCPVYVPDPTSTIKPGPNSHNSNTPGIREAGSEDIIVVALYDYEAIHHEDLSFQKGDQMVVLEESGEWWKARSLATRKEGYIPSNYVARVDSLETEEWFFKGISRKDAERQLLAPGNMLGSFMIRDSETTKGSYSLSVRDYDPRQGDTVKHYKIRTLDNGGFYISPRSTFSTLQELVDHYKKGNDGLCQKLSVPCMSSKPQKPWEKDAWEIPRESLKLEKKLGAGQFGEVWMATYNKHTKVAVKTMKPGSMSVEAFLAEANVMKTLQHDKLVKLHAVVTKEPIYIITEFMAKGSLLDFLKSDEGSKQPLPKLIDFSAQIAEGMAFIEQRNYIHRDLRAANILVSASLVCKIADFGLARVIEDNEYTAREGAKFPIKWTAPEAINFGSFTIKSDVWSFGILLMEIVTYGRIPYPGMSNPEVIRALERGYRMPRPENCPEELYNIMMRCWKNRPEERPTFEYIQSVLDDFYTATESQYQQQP

FGFR3 = FGFR3 (UniProt P22607); test: as above
Chain of FGFR3 (P22607 whole entry, looked up): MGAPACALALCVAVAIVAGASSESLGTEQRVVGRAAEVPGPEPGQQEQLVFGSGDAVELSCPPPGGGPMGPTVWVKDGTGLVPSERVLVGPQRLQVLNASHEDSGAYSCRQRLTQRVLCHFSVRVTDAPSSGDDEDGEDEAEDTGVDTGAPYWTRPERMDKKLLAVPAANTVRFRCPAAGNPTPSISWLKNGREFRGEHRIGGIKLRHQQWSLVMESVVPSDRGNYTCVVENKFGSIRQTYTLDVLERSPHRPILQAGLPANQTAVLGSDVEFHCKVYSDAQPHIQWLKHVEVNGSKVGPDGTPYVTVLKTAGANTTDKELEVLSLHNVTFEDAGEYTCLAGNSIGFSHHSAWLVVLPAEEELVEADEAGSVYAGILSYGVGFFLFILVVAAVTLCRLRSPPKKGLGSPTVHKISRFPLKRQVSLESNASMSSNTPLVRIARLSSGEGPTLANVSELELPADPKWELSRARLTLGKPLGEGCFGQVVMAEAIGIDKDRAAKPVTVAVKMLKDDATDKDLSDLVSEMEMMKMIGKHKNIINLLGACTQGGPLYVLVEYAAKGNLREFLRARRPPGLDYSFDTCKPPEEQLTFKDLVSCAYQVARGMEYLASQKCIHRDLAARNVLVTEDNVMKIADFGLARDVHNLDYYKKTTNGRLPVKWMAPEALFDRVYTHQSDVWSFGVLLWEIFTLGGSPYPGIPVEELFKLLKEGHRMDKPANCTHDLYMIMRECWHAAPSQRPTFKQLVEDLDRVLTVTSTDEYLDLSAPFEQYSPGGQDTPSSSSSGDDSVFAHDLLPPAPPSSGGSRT

FGFR1 = FGFR1 (UniProt P11362); test: as above
Chain of FGFR1 (P11362 whole entry, looked up): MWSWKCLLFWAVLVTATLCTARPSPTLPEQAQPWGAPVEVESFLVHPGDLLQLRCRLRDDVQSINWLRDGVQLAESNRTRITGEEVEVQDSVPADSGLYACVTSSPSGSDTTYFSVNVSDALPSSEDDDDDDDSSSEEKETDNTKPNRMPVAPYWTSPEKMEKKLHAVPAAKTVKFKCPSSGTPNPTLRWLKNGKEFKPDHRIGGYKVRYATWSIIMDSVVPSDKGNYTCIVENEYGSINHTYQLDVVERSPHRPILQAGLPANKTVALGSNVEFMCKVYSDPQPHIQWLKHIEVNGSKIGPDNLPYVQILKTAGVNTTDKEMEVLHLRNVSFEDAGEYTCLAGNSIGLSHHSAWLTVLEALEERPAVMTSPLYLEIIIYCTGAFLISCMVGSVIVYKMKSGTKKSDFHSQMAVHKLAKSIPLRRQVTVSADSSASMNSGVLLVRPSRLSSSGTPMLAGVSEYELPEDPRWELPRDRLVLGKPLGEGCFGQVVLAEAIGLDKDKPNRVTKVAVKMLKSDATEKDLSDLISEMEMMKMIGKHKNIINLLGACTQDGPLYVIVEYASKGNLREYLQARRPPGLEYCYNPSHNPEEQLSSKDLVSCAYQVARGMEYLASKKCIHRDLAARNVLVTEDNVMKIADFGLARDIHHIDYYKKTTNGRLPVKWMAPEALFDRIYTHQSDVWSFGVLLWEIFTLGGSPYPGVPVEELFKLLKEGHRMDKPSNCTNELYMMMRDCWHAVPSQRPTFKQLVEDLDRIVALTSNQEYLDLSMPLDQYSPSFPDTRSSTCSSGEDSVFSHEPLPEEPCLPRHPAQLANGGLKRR

EPHB1 = EPHB1 (UniProt P54762); test: as above
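Throughout, for SH2 binding enrichment of the phosphorylated peptide, bacterial display: peptide library displayed on the E. coli surface as eCPX fusions, selected cells deep-sequenced, score is each peptide's frequency after selection divided by its frequency in the input.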
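Throughout, for phosphorylation enrichment, bacterial display: 11-residue human phosphosite peptides and single-mutation variants displayed on the E. coli surface, counted by deep sequencing, each peptide's frequency after selection divided by its frequency in the unselected input library; frequency after pTyr selection over input frequency; kinase dosed for 20-30% of maximal phosphorylation in three min.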

Chain of Grb2 SH2 (P62993 whole entry, looked up): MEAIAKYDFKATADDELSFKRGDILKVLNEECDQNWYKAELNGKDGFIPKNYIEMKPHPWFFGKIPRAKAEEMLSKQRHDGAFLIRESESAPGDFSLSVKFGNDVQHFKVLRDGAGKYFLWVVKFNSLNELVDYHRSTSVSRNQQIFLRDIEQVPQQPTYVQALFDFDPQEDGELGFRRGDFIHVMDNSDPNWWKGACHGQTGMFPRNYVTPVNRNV
Chain of Jak2 (O60674 whole entry, looked up): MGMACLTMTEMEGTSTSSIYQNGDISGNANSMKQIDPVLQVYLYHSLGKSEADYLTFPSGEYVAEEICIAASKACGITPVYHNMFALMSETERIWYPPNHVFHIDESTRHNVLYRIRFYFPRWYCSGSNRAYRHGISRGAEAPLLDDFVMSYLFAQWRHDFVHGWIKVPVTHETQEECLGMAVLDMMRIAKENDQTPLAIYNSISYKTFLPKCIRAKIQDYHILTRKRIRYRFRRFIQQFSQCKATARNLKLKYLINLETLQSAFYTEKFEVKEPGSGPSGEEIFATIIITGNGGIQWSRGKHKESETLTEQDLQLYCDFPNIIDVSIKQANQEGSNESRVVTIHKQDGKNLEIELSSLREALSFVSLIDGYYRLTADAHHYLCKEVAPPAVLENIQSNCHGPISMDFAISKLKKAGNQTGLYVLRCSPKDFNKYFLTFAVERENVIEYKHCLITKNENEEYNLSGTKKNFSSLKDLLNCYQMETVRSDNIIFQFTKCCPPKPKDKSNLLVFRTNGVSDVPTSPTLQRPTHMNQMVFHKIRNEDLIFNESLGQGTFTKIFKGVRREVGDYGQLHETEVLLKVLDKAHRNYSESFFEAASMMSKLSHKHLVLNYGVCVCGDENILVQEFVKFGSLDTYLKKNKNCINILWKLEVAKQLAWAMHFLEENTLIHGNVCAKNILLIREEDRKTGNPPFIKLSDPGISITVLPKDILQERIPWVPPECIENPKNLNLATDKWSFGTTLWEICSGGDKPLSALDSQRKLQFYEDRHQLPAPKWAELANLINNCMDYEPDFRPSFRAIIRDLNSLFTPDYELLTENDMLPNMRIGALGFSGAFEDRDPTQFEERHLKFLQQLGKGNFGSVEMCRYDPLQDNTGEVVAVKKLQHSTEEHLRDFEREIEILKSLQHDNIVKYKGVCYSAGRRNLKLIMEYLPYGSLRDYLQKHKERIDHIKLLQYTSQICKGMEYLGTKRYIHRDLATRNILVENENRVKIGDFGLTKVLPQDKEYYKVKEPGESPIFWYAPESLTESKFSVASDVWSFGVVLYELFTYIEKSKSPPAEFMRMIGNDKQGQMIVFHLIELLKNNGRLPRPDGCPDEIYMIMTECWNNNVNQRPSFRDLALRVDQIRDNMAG

Row | Sequence | SH2 binding enrichment (c-Src SH2) | SH2 binding enrichment (SHP2-C SH2) | SH2 binding enrichment (Grb2 SH2) | phosphorylation enrichment (Jak2) | phosphorylation enrichment (Fer (mouse)) | phosphorylation enrichment (c-Src) | phosphorylation enrichment (c-Abl (mouse)) | phosphorylation enrichment (EPHB2) | phosphorylation enrichment (AncSZ) | phosphorylation enrichment (Fes) | phosphorylation enrichment (Fyn) | phosphorylation enrichment (MERTK) | phosphorylation enrichment (Hck) | phosphorylation enrichment (FGFR3) | phosphorylation enrichment (FGFR1) | phosphorylation enrichment (EPHB1)
1 | LQKNIYSEELR [LMNA_Y211_F206L] | 0.582 | 0.7 | 0.709 | 0.508 | 0.61 | 0.722 | 0.445 | 1.02 | 1.32 | 1.39 | 1.92 | 4.38 | 1.49 | 1.37 | 1.79 | 1.82
2 | LQLLGDRPVYS [CHST6_Y358_Y358D] | 0.335 | 0.792 | 0.772 | 2.78 | 1.53 | 1.35 | 1.3 | 2.16 | 1.88 | 3.27 | 1.7 | 0.683 | 1.37 | 1.64 | 1.63 | 2.17
3 | LRLSSYSTTIR [CYP7B1_Y365] | 0.796 | 0.823 | 1.1 | 0.936 | 0.524 | 0.658 | 0.676 | 0.708 | 1.41 | 1.1 | 0.687 | 0.686 | 0.615 | 0.756 | 0.655 | 0.674
4 | LRTAVYHEILI [CREBBP_Y1450] | 3.56 | 0.858 | 0.86 | 3.67 | 14.4 | 12.5 | 2.77 | 1.85 | 3.59 | 3.73 | 7.22 | 7.48 | 7.29 | 12.1 | 16.7 | 1.97
5 | LSALDYKIFYY [WDPCP_Y210] | 0.956 | 0.868 | 1.03 | 1.29 | 0.404 | 0.495 | 0.787 | 0.602 | 1.18 | 1.18 | 0.511 | 0.365 | 0.499 | 0.928 | 0.816 | 0.634
6 | LSEEKYELKEG [TREM1_Y29_T25S] | 0.391 | 0.603 | 0.713 | 1.18 | 0.627 | 0.489 | 0.875 | 0.628 | 1.54 | 1.4 | 0.574 | 0.449 | 0.513 | 0.835 | 0.592 | 0.712
7 | LSNPAYCLLLA [DDR1_Y513_R514C] | 0.591 | 0.819 | 0.683 | 1.49 | 0.973 | 0.699 | 0.912 | 0.844 | 1.5 | 1.63 | 0.605 | 5.79 | 0.855 | 4.44 | 6.78 | 1.05
8 | LSQAKYQIRFR [CRLF1_Y272_F268S_YF] | 0.645 | 0.78 | 1.12 | 0.63 | 0.499 | 0.421 | 0.597 | 0.286 | 0.933 | 0.672 | 0.621 | 0.499 | 0.431 | 0.596 | 0.558 | 0.682
9 | LSQDVYEEDSF [RET_Y900_R897Q_YF] | 0.671 | 0.687 | 0.83 | 2.56 | 0.978 | 0.852 | 1.58 | 0.962 | 2.12 | 2.43 | 0.882 | 1.26 | 0.945 | 1.44 | 0.991 | 1.19
10 | LSSEMYVKSYT [F5_Y2149] | 0.479 | 0.609 | 0.89 | 1.12 | 0.771 | 0.73 | 0.733 | 2.05 | 1.46 | 1.56 | 1.2 | 0.76 | 0.991 | 1.12 | 1.27 | 1.14
11 | LSSETYVKSYT [F5_Y2149_M2148T] | 0.555 | 0.818 | 0.936 | 1.37 | 0.738 | 0.668 | 0.908 | 0.74 | 0.946 | 0.902 | 0.726 | 0.513 | 0.529 | 0.582 | 0.606 | 0.553
12 | LSVISYDLGMF [GBA3_Y174_M172I] | 0.888 | 1.12 | 1.12 | 1.21 | 0.415 | 0.586 | 0.961 | 0.72 | 1.2 | 1.27 | 0.436 | 0.424 | 0.481 | 0.581 | 0.328 | 0.742
13 | LTMAPYSSVSL [FAM81A_Y24] | 2.72 | 1.82 | 0.691 | 0.518 | 6.06 | 0.897 | 0.511 | 0.45 | 0.628 | 0.618 | 0.536 | 0.556 | 0.495 | 0.488 | 0.498 | 0.412
14 | LTTPTFGDLNH [TUBB_Y222_Y222F] | 0.822 | 0.551 | 0.604 | 0.609 | 1.05 | 0.577 | 0.612 | 0.384 | 0.729 | 0.871 | 0.378 | 0.442 | 0.308 | 0.577 | 0.554 | 0.407
15 | LTTPTYGDLNH [TUBB_Y222] | 0.662 | 0.748 | 1.02 | 0.84 | 1.07 | 3.12 | 0.702 | 1.44 | 1.41 | 1.47 | 5.58 | 0.836 | 4.7 | 1.11 | 1.03 | 1.14
16 | LVTAWYIGFLC [KCNQ2_Y237] | 0.622 | 0.712 | 1.16 | 2.67 | 0.873 | 1.15 | 2.12 | 0.95 | 2.1 | 2.62 | 0.748 | 0.629 | 1.11 | 1.3 | 0.872 | 1.12
17 | LYEDRYLLGTS [ASS1_Y87] | 0.546 | 1.05 | 0.82 | 0.894 | 4.27 | 0.837 | 0.79 | 1.23 | 0.982 | 0.981 | 1.79 | 0.786 | 3.73 | 0.95 | 0.702 | 3.01

Row | Sequence | SH2 binding enrichment (c-Src SH2) | SH2 binding enrichment (SHP2-C SH2) | SH2 binding enrichment (Grb2 SH2) | phosphorylation enrichment (Jak2) | phosphorylation enrichment (Fer (mouse)) | phosphorylation enrichment (c-Src) | phosphorylation enrichment (c-Abl (mouse)) | phosphorylation enrichment (EPHB2) | phosphorylation enrichment (AncSZ) | phosphorylation enrichment (Fes) | phosphorylation enrichment (Fyn) | phosphorylation enrichment (MERTK) | phosphorylation enrichment (Hck) | phosphorylation enrichment (FGFR3) | phosphorylation enrichment (FGFR1) | phosphorylation enrichment (EPHB1)
18 | LYRYGYANTSE [SI_Y1233_C1229Y] | 2.44 | 1.31 | 2.63 | 0.6 | 0.32 | 0.351 | 0.511 | 0.39 | 0.806 | 0.775 | 0.383 | 0.36 | 0.395 | 0.507 | 0.46 | 0.437
19 | MANFVYKAGPS [MAML2_Y515_M514V_YF] | 0.66 | 0.825 | 1.01 | 0.477 | 0.39 | 0.365 | 0.417 | 0.553 | 0.681 | 0.65 | 0.423 | 0.371 | 0.499 | 0.469 | 0.517 | 0.436
20 | MAQDIYRASYY [ALK_Y1278_R1275Q] | 0.755 | 0.73 | 0.882 | 0.61 | 0.451 | 3.15 | 7.45 | 0.53 | 0.662 | 0.765 | 1.62 | 0.791 | 2.54 | 0.653 | 0.786 | 0.576
21 | MASISYDYCRV [BST2_Y6_T4I] | 1.22 | 0.77 | 1.1 | 1.09 | 2.33 | 0.589 | 0.708 | 3.29 | 1.58 | 0.908 | 0.565 | 0.75 | 1.02 | 1.1 | 1.32 | 4.17
22 | MDDPRYGVCPL [ZNF100_Y6_M8V] | 0.613 | 0.616 | 0.767 | 1.46 | 0.56 | 0.527 | 0.918 | 0.632 | 1.15 | 1.27 | 0.609 | 0.579 | 0.715 | 0.75 | 0.491 | 0.673
23 | MEFLPYGSLRD [JAK2_Y934_YF] | 0.573 | 0.574 | 0.798 | 0.798 | 0.832 | 2.6 | 0.692 | 0.451 | 0.857 | 1.56 | 1.64 | 0.388 | 2.29 | 0.615 | 0.441 | 0.571
24 | MEIHAYRKLLE [LMNA_Y376] | 0.471 | 0.572 | 0.869 | 0.814 | 0.527 | 0.397 | 0.672 | 0.67 | 0.804 | 0.97 | 0.429 | 0.383 | 0.414 | 0.57 | 0.443 | 0.479
25 | MEKEKYVSFIS [JMJD1C_Y596_YF] | 0.785 | 0.831 | 0.711 | 0.518 | 0.35 | 0.486 | 0.541 | 0.417 | 0.833 | 0.832 | 0.348 | 0.454 | 0.497 | 0.55 | 0.434 | 0.416
26 | MEKEKYVSYIS [JMJD1C_Y596] | 0.432 | 0.815 | 0.612 | 0.921 | 0.397 | 0.5 | 0.629 | 0.509 | 0.795 | 1.11 | 0.471 | 0.413 | 0.442 | 0.672 | 0.401 | 0.571
27 | MGRVNYGAFIN [GLB1_Y485_YF] | 0.585 | 0.969 | 0.903 | 0.616 | 0.382 | 0.562 | 0.472 | 0.498 | 0.567 | 0.707 | 0.408 | 0.426 | 0.422 | 0.496 | 0.398 | 0.399
28 | MHLRQYKLLGG [GNAS_Y391_E392K] | 0.483 | 0.453 | 0.715 | 0.548 | 0.399 | 0.419 | 0.478 | 0.44 | 0.51 | 0.764 | 0.443 | 0.412 | 0.522 | 0.535 | 0.478 | 0.534
29 | MKALGYFAVVK [OPA1_Y498_T503K] | 0.595 | 0.913 | 0.792 | 1 | 0.596 | 0.397 | 0.767 | 0.569 | 1.05 | 1.25 | 0.464 | 0.439 | 0.48 | 0.692 | 0.51 | 0.507
30 | MKDLTYASLCF [ALOX5_Y446] | 0.411 | 0.737 | 0.912 | 1.01 | 1.71 | 5.59 | 1.78 | 2.07 | 1.09 | 1.33 | 6.75 | 3.15 | 5.35 | 0.946 | 0.901 | 2.65
31 | MMVGAYSTLEG [ECPAS_Y470] | 11.7 | 1.44 | 0.777 | 0.557 | 0.743 | 0.704 | 0.57 | 0.545 | 0.765 | 0.839 | 0.607 | 3.09 | 1.07 | 0.676 | 0.538 | 0.735
32 | MSLPGYKLVTG [GJA1_Y286_P283L] | 0.489 | 0.682 | 0.766 | 0.497 | 0.518 | 0.353 | 0.348 | 0.393 | 0.536 | 0.585 | 0.378 | 0.364 | 0.345 | 0.456 | 0.495 | 0.374
33 | MSNSAYVKREV [SCN1A_Y1694_F1692S] | 0.454 | 0.753 | 0.838 | 0.437 | 0.37 | 0.335 | 0.442 | 0.415 | 0.563 | 0.562 | 0.402 | 0.381 | 0.399 | 0.46 | 0.45 | 0.407

Source: the supplement of paper PMC10065799, “High-throughput profiling of sequence recognition by tyrosine kinases and SH2 domains using bacterial peptide display” (eLife, 2023)
